Measurements reported in PMC10953011, “Oxygen‐insensitive nitroreductase E. coli NfsA, but not NfsB, is inhibited by fumarate” (Proteins, 2022).

Legend:
purified protein [1] = substrate: NC(=O)C1=CN([C@@H]2O[C@H](COP(=O)(O)OP(=O)(O)OC[C@H]3O[C@@H](n4cnc5c(N)ncnc54)[C@H](OP(=O)(O)O)[C@@H]3O)[C@@H](O)[C@H]2O)C=CC1; assay: purified protein; type: biochemical, Escherichia coli; conditions: FMN; pH 7.0; 25.0 °C
purified protein [2] = substrate: NC(=O)N/N=C/c1ccc([N+](=O)[O-])o1; assay: purified protein; type: biochemical, Escherichia coli; conditions: FMN; pH 7.0; 25.0 °C

B1: NfsA (Escherichia coli K-12) (protein)
chain: MTPTIELICGHRSIRHFTDEPISEAQREAIINSARATSSSSFLQCSSIIRITDKALREELVTLTGGQKHVAQAAEFWVFCADFNRHLQICPDAQLGLAEQLLLGVVDTAMMAQNALIAAESLGLGGVYIGGLRNNIEAVTKLLKLPQHVLPLFGLCLGWPADNPDLKPRLPASILVHENSYQPLDKGALAQYDEQLAEYYLTRGSNNRRDTWSDHIRRTIIKESRPFILDYLHKQGWATR
notes: untagged full-length
Which Km (purified protein [1]) does the source give for B1 here?
Its Km is 29 ± 6 µM.

And the kcat (purified protein [1])?
The kcat was 25 ± 2 s⁻¹.

And the kcat/Km (purified protein [1])?
Its kcat/Km is 860000 ± 100000 M⁻¹ s⁻¹.

What about the Km (purified protein [2]) of the same protein?
Its Km is 27 ± 6 µM.

And the kcat (purified protein [2])?
Its kcat is 25 ± 2 s⁻¹.

And the kcat/Km (purified protein [2])?
Its kcat/Km is 930000 ± 100000 M⁻¹ s⁻¹.
